The supplement of paper PMC10126150
± gives the standard deviation of the averaged measurements.

Test system: ATP
Experiment: switch fluorescence ratio, 500 uM ATP over buffer (Cy3 cluster intensity, sum of 5 cycles each) (fold (ratio)); higher = stronger signal-on switching upon ATP binding; sequences stand for … in TCGTCGGCAGCGTCAGATGTGTATAAGAGACAGTTTTTTTTTTTTTTTTTTTTTTTTT…TC
Details: aptamer strand: ATP DNA aptamer (quencher-CACCTGGGGGAGTATTGCGGAGGAAGG + anchor), 100 nM annealed; ATP concentration: 500 uM
How it was run: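 Cy3-labelled switching-strand clusters on a modified Illumina MiSeq flow-cell were annealed to 100 nM quencher-labelled ATP aptamer, imaged in selection buffer, then imaged after 15 min with 500 uM ATP at 22 °C. Five buffer/ATP cycles ran, with NaOH stripping and re-annealing between them. The fluorescence ratio is summed target-cycle over summed buffer-cycle Cy3 intensity per cluster, averaged per switch-domain sequence. Clusters outside 100-1000 RFU were excluded.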
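Further: ATP exposure 15 min at 22 °C before imaging.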

| Sequence | switch fluorescence ratio |
| --- | --- |
| ACGGGGTCAC | 1.026 ± 0.0017 |
| ACGGGGTGCA | 0.99 ± 0.017 |
| ACGGGGTGTT | 1 ± 0.04 |
| ACGGGGTTGC | 1.01 ± 0.017 |
| ACGGGGTTGG | 1.03 ± 0.024 |
| ACGGGTAATC | 1.071 ± 0.0095 |
| ACGGGTAGAC | 1.0808 ± 0.001 |
| ACGGGTAGCA | 0.999 ± 0.016 |
| ACGGGTGGCA | 0.986 ± 0.019 |
| ACGGGTGGGT | 1.08 ± 0.15 |
| ACGGGTTGAG | 1.03 ± 0.029 |
| ACGGTAGAAA | 1.01 ± 0.012 |
| ACGGTGAGGG | 1.02 ± 0.026 |
| ACGGTTAAGG | 1.03 ± 0.019 |
| ACGGTTCGGA | 1.02 ± 0.019 |
| ACGGTTGTGC | 1.01 ± 0.04 |
| ACGGTTGTTC | 1.027 ± 0.005 |
| ACGTAAAGAC | 1.17 ± 0.23 |
| ACGTACTTGA | 1.52 ± 0.085 |
| ACGTAGTTTC | 1.05 ± 0.023 |
| ACGTATAGAG | 0.991 ± 0.042 |
| ACGTATCCGG | 0.9932 ± 0.0067 |
| ACGTCAAAAC | 2.91 ± 0.41 |

| Sequence | switch fluorescence ratio |
| --- | --- |
| ACGTCAGTCA | 0.976 ± 0.023 |
| ACGTCGGAG | 0.995 ± 0.046 |
| ACGTCGGGTG | 1.25 ± 0.15 |
| ACGTCGTAGG | 1.05 ± 0.016 |
| ACGTCTTTGG | 1.02 ± 0.043 |
| ACGTGACGGG | 1.07 ± 0.029 |
| ACGTGGAAGC | 1.04 ± 0.043 |
| ACGTGTTGGC | 1.02 ± 0.052 |
| ACGTTAAGTT | 1.1 ± 0.029 |
| ACGTTAGTCG | 0.9687 ± 0.0095 |
| ACGTTGATGG | 0.9882 ± 0.0095 |
| ACGTTGCCAG | 0.963 ± 0.019 |
| ACGTTTGCG | 0.98 ± 0.04 |
| ACGTTTGGAT | 1.02 ± 0.027 |
| ACGTTTGTCC | 1.03 ± 0.022 |
| ACGTTTTTTT | 0.988 ± 0.035 |
| ACTAAAGGGG | 1.04 ± 0.021 |
| ACTAACTAAT | 1.06 ± 0.056 |
| ACTAAGTAAC | 1.04 ± 0.037 |
| ACTAAGTCTG | 1.02 ± 0.045 |
| ACTAATGGTT | 1.03 ± 0.022 |
| ACTACCTACA | 1.364 ± 0.0065 |
| ACTACGTCGG | 1.08 ± 0.044 |

| Sequence | switch fluorescence ratio |
| --- | --- |
| ACTACTGCTG | 1.05 ± 0.0044 |
| ACTACTGGTT | 1.03 ± 0.03 |
| ACTAGCTTGT | 1.04 ± 0.026 |
| ACTAGGATGG | 0.99 ± 0.026 |
| ACTAGGTCCG | 1.005 ± 0.0016 |
| ACTAGTCACG | 1.072 ± 0.0093 |
| ACTATATAAT | 1.08 ± 0.014 |
| ACTATCGGGA | 1.02 ± 0.037 |
| ACTATGAAAA | 1.037 ± 0.0011 |
| ACTATGGCCC | 1.03 ± 0.017 |
| ACTATGGCGG | 1.03 ± 0.032 |
| ACTATGGTAA | 0.9704 ± 0.008 |
| ACTATTAATC | 1 ± 0.02 |
| ACTATTGCGG | 1.01 ± 0.025 |
| ACTATTTTTG | 0.9745 ± 0.0067 |
| ACTCACGGAG | 1.16 ± 0.036 |
| ACTCAGATTG | 1.05 ± 0.056 |
| ACTCATAATT | 1.0222 ± 0.00042 |
| ACTCATGATG | 0.99 ± 0.024 |
| ACTCCGTCTT | 1.441 ± 0.0027 |
| ACTCCTCTTT | 1.093 ± 0.0093 |
| ACTCCTGTAA | 1.13 ± 0.11 |
| ACTCCTTGCT | 1.24 ± 0.018 |

| Sequence | switch fluorescence ratio |
| --- | --- |
| ACTCGAAGGG | 1.02 ± 0.042 |
| ACTCGACCTT | 1.21 ± 0.15 |
| ACTCGCAGGG | 1.073 ± 0.0016 |
| ACTCGGAATT | 1.12 ± 0.019 |
| ACTCTAAAAA | 1.05 ± 0.012 |
| ACTCTCGAGG | 1.24 ± 0.34 |
| ACTCTGGCGT | 1.08 ± 0.024 |
| ACTCTGGGGG | 1.07 ± 0.092 |
| ACTCTTGCGG | 1.01 ± 0.016 |
| ACTCTTGTTT | 1.03 ± 0.014 |
| ACTGACAGCG | 1.0189 ± 0.00036 |
| ACTGAGGAAA | 1.01 ± 0.046 |
| ACTGAGGTAA | 0.95 ± 0.043 |
| ACTGAGTTTG | 1 ± 0.016 |
| ACTGATCAGA | 0.99427 ± 0.00038 |
| ACTGATCGCG | 1.02 ± 0.034 |
| ACTGATGGTA | 1.02 ± 0.025 |
| ACTGATGTAC | 1.09 ± 0.012 |
| ACTGATTTTG | 1.01 ± 0.029 |
| ACTGCCCGGC | 1.1 ± 0.12 |
| ACTGGACGAT | 1.19 ± 0.015 |
| ACTGGGATGT | 1.02 ± 0.0043 |
| ACTGGGGACG | 1.02 ± 0.053 |

| Sequence | switch fluorescence ratio |
| --- | --- |
| ACTGGGGGGC | 1.05 ± 0.016 |
| ACTGGGGGGT | 0.994 ± 0.02 |
| ACTGGGGGTT | 0.994 ± 0.029 |
| ACTGGGGTTT | 0.982 ± 0.024 |
| ACTGGGTACC | 1.05 ± 0.012 |
| ACTGGGTCGA | 1.04 ± 0.034 |
| ACTGGGTTTG | 1.001 ± 0.0043 |
| ACTGGTAAGG | 1.009 ± 0.0053 |
| ACTGGTATGG | 1.01 ± 0.025 |
| ACTGGTCAGC | 1 ± 0.029 |
| ACTGGTCGCC | 0.992 ± 0.015 |
| ACTGGTGGCA | 1.04 ± 0.028 |
| ACTGGTTGGG | 0.966 ± 0.018 |
| ACTGTAGTCT | 1.06 ± 0.012 |
| ACTGTGTGTT | 1.01 ± 0.025 |
| ACTGTTAGGC | 1.01 ± 0.056 |
| ACTGTTATTT | 1.0389 ± 0.00024 |
| ACTGTTTGTC | 0.9897 ± 0.0061 |
| ACTGTTTTCT | 1.05 ± 0.02 |
| ACTGTTTTGC | 0.999 ± 0.019 |
| ACTGTTTTTC | 1 ± 0.013 |
| ACTTAAAAGG | 1.0122 ± 0.00061 |
| ACTTAAGTAG | 0.987 ± 0.04 |

| Sequence | switch fluorescence ratio |
| --- | --- |
| ACTTACGGGC | 1.513 ± 0.0058 |
| ACTTATCAGG | 1.04 ± 0.045 |
| ACTTATGTGG | 0.974 ± 0.018 |
| ACTTATTAAA | 1.03 ± 0.034 |
| ACTTATTCGG | 1.02 ± 0.019 |
| ACTTCCGGG | 1.33 ± 0.27 |
| ACTTCGTTCT | 1.03 ± 0.034 |
| ACTTCTAGCG | 1.02 ± 0.072 |
| ACTTGACCCG | 1.08 ± 0.064 |
| ACTTGAGGGA | 0.9743 ± 0.0071 |
| ACTTGAGGGG | 1.03 ± 0.043 |
| ACTTGAGGTC | 0.991 ± 0.028 |
| ACTTGCGGCT | 1 ± 0.05 |
| ACTTGCGTCG | 0.981 ± 0.023 |
| ACTTGGAGGG | 1.01 ± 0.011 |
| ACTTGGCGTC | 1.02 ± 0.06 |
| ACTTGGGGGT | 1.02 ± 0.016 |
| ACTTGGTCCA | 0.987 ± 0.016 |
| ACTTGTAATT | 0.997 ± 0.026 |
| ACTTGTGACA | 1.12 ± 0.18 |
| ACTTGTGTAA | 1.018 ± 0.0021 |
| ACTTGTTTGC | 1.03 ± 0.035 |
| ACTTTAGGGG | 1.06 ± 0.044 |

| Sequence | switch fluorescence ratio |
| --- | --- |
| ACTTTATGTT | 1.041 ± 0.0015 |
| ACTTTATTGG | 1.03 ± 0.024 |
| ACTTTCACGG | 1.32 ± 0.044 |
| ACTTTGGCGG | 0.981 ± 0.044 |
| ACTTTGTCAT | 0.981 ± 0.017 |
| ACTTTGTTCT | 1 ± 0.027 |
| ACTTTTGTTT | 1.02 ± 0.015 |
| AGAAAAAACA | 0.986 ± 0.02 |
| AGAAAAAACG | 1.05 ± 0.092 |
| AGAAAAAAGG | 1.23 ± 0.42 |
| AGAAAAAAGT | 1.03 ± 0.12 |
| AGAAAAAGGC | 1.02 ± 0.065 |
| AGAAAAAGGG | 1.01 ± 0.037 |
| AGAAAAATTT | 1.19 ± 0.29 |
| AGAAAAGCTC | 1.02 ± 0.033 |
| AGAAAAGGGA | 0.995 ± 0.017 |
| AGAAAGAGGT | 1.011 ± 0.0096 |
| AGAAAGTTGA | 1.024 ± 0.01 |
| AGAAATCCTT | 0.976 ± 0.036 |
